Target: adaptor protein complex 2 (AP-2), P17426;Q9DBG3;P84091;P62743
Assay: GST pull-down from brain lysate, immunoblot band quantification
Conditions: chain shown with the change; n = 3 independent experiments; parent: est. 1.0; read off a plot

B1: GST-VGLUT1 C-terminus-WT (cytoplasmic C-terminal region of VGLUT1, a.a. 496-560), Q3TXX4 F510A; V511A (protein)
chain: PWAEPEEMSEEKCGAAGHDQLAGSDESEMEDEAEPPGAPPAPPPSYGATHSTVQPPRPPPPVRDY
  ratio to parent: 0.19

Reference: PMC8752090
